Laboratory results published in the DeepSol protein solubility set.

assay: soluble on expression in E. coli; label from the status in PepcDB or PDB records

Soluble on expression in E. coli, not soluble:
MGSDKIHHHHHHMDTDLLKTFLEVSRTRHFGKAAENLYLTRSAVSFRIKQLENILGLELFERLRNNIQPTPAGERMLGHAEAVLNAWERAKQDIILNQQHSAQLALSAGDNIWDAFLQGFLQPLHLGLEGVALRTDVLPATVMTRQLIERTLDIAITFDPPKLDGVILVKLAEVKLYLVSKQAGVKLTQTPTLPYIKVDWGTAFNITHAQDFTMLPLPVLHTSSARMALDFILNNGGCAFLPEALIKPYLDNGSLYVVDDAKCIHRHVYAAYWAENERLAYIEQAISILTTDKRTE, MGSDKIHHHHHHMDTKQTFLEDLKSRDNIKLSLMVMKIIFRETDKLICILADRTGEIKASVPLKDGDIKQGMVIQINGSKNVNLEVKSYKIIRDYNISDYLPTVKRPIEDIMNEIELYTNKYVLSKEGRALNDYFFKDEEFLEKFKKGIGGVSMHHNYIGGLAEHTLNVMKITAKLSEKYKCRRMEVAVLAAKLHDIGKVYEYDCNGPFKYTMRGQMEGHIVIGVELVDRAVRENLNLYPEDFVNRIKGCIVQHHGKLEFGSPREMNMEESFIINYADSIDATMNKISQLKEKTEPDTWSEFDRRIERKLYL, MGSDKIHHHHHHMEAIQVASVKDNFVKTLEKIRKKHGVDIIALFAIRQSLAIHVINSADNPVSFSAGTIFNLTLTPLVEEFLFNVKTFENHPQKTRFALVENVQWELYIPVVFKEFPTGFVYVASKKKRDAEKTEGIIRDLQDFLKAHGLEYYFLEYSVVLDQLLTTVAILIDRLFSRVSRYTLNHIYNVAFWAEEIGKIVGLDEKRLAKLYLAGLLHDIGKVYIDERILNKEGRLTLQEYQEMKKHVDYSYNMVKDLMIWDIEDDVALWVVQHHEKFDGSGYPFGLKEEEITPEGRILKIADTLDAMLSPRSYRNPFPLDDVIKEIERLRGKDFDPLLADLTVDLLREKKESLGLFEGRILPATLIAGEGIHEGILRKNDGYHVFISDYV, MGSDKIHHHHHHMECTSYLVDTFDQLPPINEESLADIDNDLFSGLYYGGVDTPTTRQLSQRVADLEKGKFAVLTPSGQSAFNLLLTTFVKPGDHVLAGDTIVYSTRWLLNHFENIGVKIEYFTPSEAATLKNKLTLKTKLIIFENPGAFTYEVMDISAIVESRHDHPALIVADNTWAASLFHHPLSLGADISLISMSKYHGAVEGISLGALITKRKDLYVNLKTTSALTGNHVSSHACSAAIRSISTLGARLSFQMSTTRKVLRSLKPLPLLKQAIHPILQNTELHLQNSMIYGFNSLFTAEFSCSRNELISRLNRLNLIKIGYGWGGTTSLVNLIDTHDMPSAKRLGINSECARIYLGLEDPDELTRDLTNAFTQ, MGSDKIHHHHHHMECVFGIDVSKENANVAVLVDNVVIKQFKIGLDRLGFSLLSDELNSFNAPLIIYEATAMYSRRLRAFLQRDGWKYTELNPLAAKKVMEEFRHTKTDALDAVGLARAMIKNHFRPTYQESPVYTELHDLERTYQQFNKDIVTNKNRLHRALQLTFPEIEHFMSSTDGVLYWHIVQRFPHPAIVLSHEENELTEIILTETSKKIGLKRAMKLANRLLALAQNSAPAKEPQSHAVRAVIALAKEVERINQLKAQIIVEMTTLGENLSEVPLLVSIPGIGIKTALCLIAELGDVRRFHSANAINAYIGIDLIRYESGQYEAKMHIRKRGNPYVRKILYRAILNIISVSQYQPTLISANYKRKKQSAQSHGTKKIAIAAMSQFNRLMHHLILNNELYDSTTFMPE, MGSDKIHHHHHHMEDNDWKLLKIIEISMKNHEWVPIQDLRRKTGFHEKEIVFRLGRLNKFKFTNKSNYGYRLSHWGYDALAMNAFIKKELIAGIGGKVGVGKEGDVYHVLLTNHREAVLKFHQLGRTCFSMGKRYREYLANKRHISWLYASRLTAAREFEVLNMLFPVVKVPEPIEQNRHAIIMGKLHGEELKRVNLLEINVDPEEFFWKLMVEVKKTYKLGIIHGDLSEFNILIDSEGDFVIIDWPQAIEVGKKGKLDKLPFEEVEYDEEFYLKRDIENVVRYFKKYGIDKDIDKLYNYVIGDITSENI
